Target: T1, His tagged Grh (551-1333 aa) (Drosophila, UniProt P13002 551-1333)
T1 construct: Grainyhead (Grh), Drosophila transcription factor, residues 551-1333; also called His-Grh; Grainyhead; source: bacterial culture (induced two hours with 0.5mM IPTG at 18°C), in lysate for the pull-down
Assay: native gel or EMSA; proteins (100 or 200 ng) mixed with DNA oligos of motifs from the 1Kb F3B3 enhancer; complexes seen on DNA only; 20 ul, room temperature, 30 minutes; binding buffer with Tris pH 7.5, KCl, MgCl2, EDTA, DTT, BSA, glycerol, polydIdC
Conditions: both partners purified

T1 sequence (P13002 551-1333): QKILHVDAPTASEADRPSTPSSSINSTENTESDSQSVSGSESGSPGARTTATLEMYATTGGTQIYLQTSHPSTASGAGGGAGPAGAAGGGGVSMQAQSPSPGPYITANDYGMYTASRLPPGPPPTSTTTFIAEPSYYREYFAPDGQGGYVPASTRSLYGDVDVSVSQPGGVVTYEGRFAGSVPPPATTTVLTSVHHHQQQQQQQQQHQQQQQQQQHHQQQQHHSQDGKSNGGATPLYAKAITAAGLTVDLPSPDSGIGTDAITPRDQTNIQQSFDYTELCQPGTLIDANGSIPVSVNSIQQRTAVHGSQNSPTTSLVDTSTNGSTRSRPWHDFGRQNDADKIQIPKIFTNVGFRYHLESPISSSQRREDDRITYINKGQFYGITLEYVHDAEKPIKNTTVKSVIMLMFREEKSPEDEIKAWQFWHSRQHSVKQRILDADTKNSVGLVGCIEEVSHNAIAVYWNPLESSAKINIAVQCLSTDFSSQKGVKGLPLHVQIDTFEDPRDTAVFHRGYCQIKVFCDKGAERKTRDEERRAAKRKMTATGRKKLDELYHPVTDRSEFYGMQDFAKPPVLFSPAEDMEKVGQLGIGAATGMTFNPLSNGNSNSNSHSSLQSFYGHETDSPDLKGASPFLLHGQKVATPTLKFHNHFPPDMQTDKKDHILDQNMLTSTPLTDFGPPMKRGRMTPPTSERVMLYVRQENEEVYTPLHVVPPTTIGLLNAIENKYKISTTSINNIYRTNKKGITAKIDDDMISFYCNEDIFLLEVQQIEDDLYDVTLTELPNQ

binding result: binds
B1: 6X His-tagged AbdA (residues 261-590) (domain or fragment)
chain: not shown
notes: Abdominal-A (AbdA), Drosophila Hox protein, residues 261-590; also called Hox

Source: article PMC5667929, “Combinatorial action of Grainyhead, Extradenticle and Notch in regulating Hox mediated apoptosis in Drosophila larval CNS” (PLoS Genetics, 2017)
